Legend:
[1] = biological target: UBA5 333–404 (human, UniProt Q9GZZ9 333-404); test: ITC
[2] = biological target: UBA5 Y372A (human, UniProt Q9GZZ9 1-404, Y372A); test: ITC
Sequence of UBA5 Y372A (Q9GZZ9 whole entry Y372A): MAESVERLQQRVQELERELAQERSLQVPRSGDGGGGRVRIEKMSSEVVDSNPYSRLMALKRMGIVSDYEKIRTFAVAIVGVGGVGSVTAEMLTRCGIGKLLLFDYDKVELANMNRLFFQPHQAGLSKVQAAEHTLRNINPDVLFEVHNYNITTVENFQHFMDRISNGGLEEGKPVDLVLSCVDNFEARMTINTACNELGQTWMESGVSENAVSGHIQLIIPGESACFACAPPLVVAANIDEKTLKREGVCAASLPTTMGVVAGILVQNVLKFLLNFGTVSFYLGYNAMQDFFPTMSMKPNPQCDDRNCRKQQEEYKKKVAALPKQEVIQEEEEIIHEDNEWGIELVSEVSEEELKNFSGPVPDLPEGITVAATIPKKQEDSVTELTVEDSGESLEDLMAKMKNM

Sequence of UBA5 333–404 (Q9GZZ9 333-404): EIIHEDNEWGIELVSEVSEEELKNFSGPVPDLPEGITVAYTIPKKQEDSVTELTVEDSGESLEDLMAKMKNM

B1: UFC1 (WT) (enzyme)
chain: MADEATRRVVSEIPVLKTNAGPRDRELWVQRLKEEYQSLIRYVENNKNADNDWFRLESNKEGTRWFGKCWYIHDLLKYEFDIEFDIPITYPTTAPEIAVPELDGKTAKMYRGGKICLTDHFKPLWARNVPKFGLAHLMALGLGPWLAVEIPDLIQKGVIQHKEKCNQ
[1]
  Kd: 2.5 µM
[2]
  Kd: 1.9 µM

Reference: publication PMC8481289 (2021)
